According to publication PMC8372230:

Target: extracellular domain (residues Q18 to S740) of human ACE2 fused with human IgG1 Fc (human) (UniProt Q9BYF1)
Experiment: BLI

Chain of UniProt Q9BYF1 (Q9BYF1 18-740): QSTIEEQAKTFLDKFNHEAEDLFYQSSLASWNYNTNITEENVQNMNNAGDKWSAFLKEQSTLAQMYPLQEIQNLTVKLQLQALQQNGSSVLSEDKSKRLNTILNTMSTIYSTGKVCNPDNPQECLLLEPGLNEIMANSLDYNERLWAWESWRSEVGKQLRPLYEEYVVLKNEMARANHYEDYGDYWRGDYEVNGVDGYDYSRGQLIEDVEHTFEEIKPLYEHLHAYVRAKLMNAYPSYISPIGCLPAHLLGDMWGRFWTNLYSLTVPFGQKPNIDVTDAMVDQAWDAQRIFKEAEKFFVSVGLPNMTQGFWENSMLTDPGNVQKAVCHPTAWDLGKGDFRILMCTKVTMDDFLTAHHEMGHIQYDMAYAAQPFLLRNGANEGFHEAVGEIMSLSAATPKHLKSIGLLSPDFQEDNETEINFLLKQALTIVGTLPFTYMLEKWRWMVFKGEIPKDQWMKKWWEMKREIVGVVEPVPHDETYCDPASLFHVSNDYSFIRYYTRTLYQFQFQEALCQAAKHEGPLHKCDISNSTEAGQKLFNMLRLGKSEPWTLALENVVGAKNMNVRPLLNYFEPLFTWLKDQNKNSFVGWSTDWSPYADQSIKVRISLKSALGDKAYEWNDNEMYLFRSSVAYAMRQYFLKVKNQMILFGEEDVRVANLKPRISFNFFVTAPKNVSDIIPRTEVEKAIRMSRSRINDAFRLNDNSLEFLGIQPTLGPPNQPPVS

yeast-derived monomeric RBD of SARS-CoV-2 (residues 320-550, C-terminal 6x His-tag) (domain or fragment)
Kd: 9.07 nM
koff: 0.00239 s⁻¹
kon: 264000 M⁻¹ s⁻¹
